Source: patent US20130171236A1, “Prevention and Treatment of Ischemia-Reperfusion Injury and Related Conditions” (MEDICAL UNIVERSITY OF SOUTH CAROLINA, priority 2006, published 2013)

Key:
C57B1/6 mice [1] = assay: Intestinal ischemia-reperfusion injury model in immune competent mice; assay type: in vivo; details: injected right before the reperfusion phase, FIG. 9
Description: To address this issue, the inventors created compounds that could block the effects of the monoclonal antibodies. This concept was first tested with the antibodies recognizing phospholipids, and liposomes were created composed of cholesterol and the phospholipids phosphatidylcholine and phosphoglycerol.
Wild type C57BL/6 are utilized for these studies. The ischemia-reperfusion model is performed as outlined briefly. Anesthesia is induced with ketamine (16 mg/kg) and xylazine (8 mg/kg) administered by intramuscular injection. All procedures are performed with the animals breathing spontaneously and body temperature maintained at 37° C. using a water-circulating heating pad. To induce ischemia-reperfusion injury, a midline laparotomy is performed prior to a 30 minute equilibration period. […] After this ischemic phase, the clamp is removed under direct visualization and the intestine allowed to perfuse for 2 hours. […] The laparotomy incisions are then sutured and the animals monitored during the reperfusion period. […]
For histology and immunohistochemistry, immediately after euthansia segments of small intestine specimens are fixed in 10% buffered formalin. […] In addition, the villus height of at least 10 villi from the same section is measured using an ocular micrometer. […]

C57B1/6 mice [2] = assay: MCAO ischemic stroke and reperfusion in C57B1/6 mice, treatment; assay type: in vivo; details: 100 μg i.v. at 30 min post reperfusion
Description: Eight week old male C57B1/6 and C57B1/6 C3 deficient mice (Jackson labs, Bar Harbor, Me.) were used in experiments. Mice were anesthetized with chloral hydrate (350 mg/kg) and xylazine (4 mg/kg) i.p., and the left common carotid artery of each mouse was exposed through a mid-line incision in the neck. […] The distal end of the ECA was ligated with 6-0 silk and transected, and 6-0 silk was tied loosely around the ECA stump. The clip was then removed, and the blunted tip of a 4-0 nylon suture was inserted into the ECA stump. The loop of the 6-0 silk was tightened around the stump, and the nylon suture advanced into and through the internal carotid artery until it rested in the anterior cerebral artery. After the nylon suture had been placed for 60 minutes, it was pulled back into the ECA, and the incision closed. […]
Infarct volume was measured by TTC staining and volume calculated using image analysis.
Animals were monitored for 24 hours post reperfusion and clinical assessed for neurological deficit. Behavioral/neurological deficit was scored as follows: 0, normal motor function; 1, flexion of torso and contralateral forelimb when animal is lifted by the tail; 2, circling to the contralateral side when held by tail on flat surface, but normal posture at rest; 3, leaning to the contralateral side at rest; 4, no spontaneous motor activity. […]

B1: annexin IV: recombinant annexin IV, a phospholipid binding protein, prepared as in Example 2 (protein, listed as Homo sapiens)
chain: MATKGGTVKAASGFNAMEDAQTLRKAMKGLGTDEDAIISVLAYRNTAQRQEIRTAYKSTIGRDLIDDLKSELSGNFEQVIVGMMTPTVLYDVQELRRAMKGAGTDEGCLIEILASRTPEEIRRISQTYQQQYGRSLEDDIRSDTSFMFQRVLVSLSAGGRDEGNYLDDALVRQDAQDLYEAGEKKWGTDEVKFLTVLCSRNRNHLLHVFDEYKRISQKDIEQSIKSETSGSFEDALLAIVKCMRNKSAYFAEKLYKSMKGLGTDDNTLIRVMVSRAEIDMLDIRAHFKRLYGKSLYSFIKGDTSGDYRKVLLVLCGGDD
With B1 the intestinal ischemia-reperfusion injury (C57B1/6 mice [1]) was “nearly completely protected mice from ischemia-reperfusion injury”, the intestinal ischemia-reperfusion injury (C57B1/6 mice [1]; listed as recombinant annexin IV) was “reduces the level of intestinal ischemia reperfusion injury” and the neurological deficit (C57B1/6 mice [2]; 24 hours, FIG. 8) was “significant reduction in neurological deficit”. The “cerebral infarct volume (TTC)” value (C57B1/6 mice [2]; FIG. 7) was “significantly protects against cerebral infarct”.
